The source of these data is patent US20150087055A1, “ANALOG AND MIXED-SIGNAL COMPUTATION AND CIRCUITS IN LIVING CELLS” (MASSACHUSETTS INSTITUTE OF TECHNOLOGY, priority 2012, published 2015).

The test concerns Plux promoter. Briefly: LuxR/Plux circuit characterization by flow cytometry (AHL transfer functions). In kind it is cell-based, E. coli. To be noted: no AHL, IPTG=10 mM, GFP, MG1655 Pro cells (FIG. 19C). The protocol: Overnight cultures of E. coli strains were grown from glycerol freezer stocks at 37° C. 300 rpm in 3 mL of Luria-Bertani (LB)-Miller medium (Fisher #BP1426-2), with appropriate antibiotics: carbenicillin (50 μg/ml), kanamycin (30 μg/ml), chloramphenicol (25 μg/ml). The inducers used were arabinose, isopropyl-β-D-1-thiogalactopyranoside, and AHL 3OC6HSL (Sigma-Aldrich #K3007-10MG). Where appropriate, COPYCONTROL^24 from Epicentre (Madison, Wis.) was added to overnight cultures at 1× active concentration. Overnight cultures were diluted 1:100 into 3 mL fresh LB and antibiotics and were incubated at 37° C. 300 rpm for 20 minutes. […]
Cells were then diluted 4-fold into a new 96-well plate containing fresh 1×PBS and immediately assayed using a BD LSRFORTESSA-HTS. At least 50,000 events were recorded for all data, which was then gated by forward scatter and side scatter using CYFLOGIC v.1.2.1 software (CyFlo, Turku, Finland). The geometric means of the gated fluorescence distributions were calculated by Matlab. Fluorescence values are based on geometric means of flow cytometry populations from three experiments and the error bars represent standard errors of the mean.
For each experiment, fluorescence readings were taken on a BioTek Synergy H1 Microplate reader using BioTek Gen5 software to determine the minimum and maximum expression level for cultures in each 96-well plate. […]
Background: In flow cytometry, cells or beads pass a laser one at a time.

B1: LuxR: quorum-sensing transcriptional activator induced by AHL, activates promoter Plux (protein, UniProt P12746 1-250, looked up)
Transcriptional activator …: MKNINADDTYRIINKIKACRSNNDINQCLSDMTKMVHCEYYLLAIIYPHSMVKSDISILDNYPKKWRQYYDDANLIKYDPIVDYSNSNHSPINWNIFENNAVNKKSPNVIKEAKTSGLITGFSFPIHTANNGFGMLSFAHSEKDNYIDSLFLHACMNIPLIVPSLVDNYRKINIANNKSNNDLTKREKECLAWACEGKSSWDISKILGCSERTVTFHLTNAQMKLNTTNRCQSISKAILTGAIDCPYFKN
Regarding B1, the “repression of the Plux promoter in the absence of AHL” value was “no repression”.
